These results are taken from patent publication US20180119166.

For this data set, the target named is T1, MBP fusion protein of the carboxyl-terminal domain of Gle1 (MBP-Gle1C; amino acid residues 244-611).
T1 chain: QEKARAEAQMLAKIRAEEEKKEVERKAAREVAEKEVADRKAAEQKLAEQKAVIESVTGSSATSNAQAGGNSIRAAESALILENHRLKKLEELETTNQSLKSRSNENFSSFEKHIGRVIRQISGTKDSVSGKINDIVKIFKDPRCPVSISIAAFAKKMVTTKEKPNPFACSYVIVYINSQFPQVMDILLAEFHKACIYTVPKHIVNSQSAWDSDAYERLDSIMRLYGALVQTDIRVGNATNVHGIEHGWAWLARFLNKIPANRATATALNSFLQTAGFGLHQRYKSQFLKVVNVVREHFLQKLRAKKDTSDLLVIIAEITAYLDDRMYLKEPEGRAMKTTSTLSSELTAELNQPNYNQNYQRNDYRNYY

B1: 6x-histidine-fused LOS4 (LOS4-His) (protein)
chain: MADTVEKVPTVVESSSSSTVEASNSAEKTEPTTEKKKWGDVEDDDDEEEAVSELNSLSIKEEEKPDSILEEPEDSNIKAVTSGDTPYTSASRFEDLNLSPELMKGLYVEMKFEKPSKIQAISLPMIMTPPHKHLIAQAHNGSGKTTCFVLGMLSRVDPTLREPQALCICPTRELANQNMEVLQKMGKFTGITAELAVPDSTRGAPAATRGAPVSAHVVIGTPGTLKKWMAFKRLGLNHLKILVFDEADHMLATDGFRDDSLKIMKDIGRVNPNFQVLLFSATFNETVKDFVARTVKDPNQLFVKREDLALDSVKQYKVVCPKEQNKIEVIKDQIMELGDIGQTIIFVKTKASAQKVHKALAEMGYDVTSVHGNLTESDRDKIVKEFKECLTQVLIATDVIARGFDQQRVNLVVNYNLPTKYETGEPDYEVYLHRVGRAGRFGRKGAVFNLLLDDGWDKEVMEKIEKYFEANVKEIKSWNSEEEYKSALKEAGLLDEHHHHHH
For B1, the “apparent kcat of LOS4-His with MBP-Gle1C (2 µM MBP-Gle1C, 1 µM LOS4-His)” value is “the apparent kcat values for LOS4-His alone and LOS4-His with MBP-Gle1C were calculated to be 0.267 and 0.565 sec^-1, respectively”; the “fold increase in the overall catalytic rate of LOS4 (kcat against LOS4-His alone, 0.267 sec^-1)” value is listed as “an approximately two-fold increase in the overall catalytic rate of LOS4 by Gle1”.
